B1: minF1; the commonest letter at each place (parent)
chain: GAGACCGCAACTGAAAAGTTGTTATCAGAAATGGATGGGTTGAATTTCTGCACGTAGAAGCAAAAGGC

Variants of: B1
Assay: fraction ligated after 30 min (ligated reads / total reads); higher = more ligase activity
Conditions: with F1*subA RNA substrate (template-directed ligation), 42 °C
Method in brief: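 Using barcoded primers for reverse transcription and a MiSeq for sequencing, gel-separated ligated and unligated RNAs of minimized ligase ribozyme variants were read, with core-base filtering at quality ≥30. Fraction ligated per variant was defined as ligated reads over total reads.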

| Variant | fraction ligated |
| --- | --- |
| GAGACCGCAACTGAAAAGTTGTTATCAGAAATGGATCGGTTTAATTTCTGCACGTAGAAGCAAAAGGC | 0.00137 |
| GAGACCGCAACTGAAAAGTTGTTATCAGAAATGGATCGGTTCAATTTCTGCACGTAGAAGCAAAAGGC | 0.00331 |
| GAGACCGCAACTGAAAAGTTGTTATCAGAAATGGATCGGTTAAATTTCTGCACGTAGAAGCAAAAGGC | 0.00281 |
| GAGACCGCAACTGAAAAGTTGTTATCAGAAATGGATGGGTTCGGTTTCTGCACGTAGAAGCAAAAGGC | 0.00392 |
| GAGACCGCAACTGAAAAGTTGTTATCAGAAATGGATGGGTTCGCTTTCTGCACGTAGAAGCAAAAGGC | 0.000834 |
| GAGACCGCAACTGAAAAGTTGTTATCAGAAATGGATGGGTTCGTTTTCTGCACGTAGAAGCAAAAGGC | 0.00288 |
| GAGACCGCAACTGAAAAGTTGTTATCAGAAATGGATGGGTTTATTTTCTGCACGTAGAAGCAAAAGGC | 0.0246 |
| GAGACCGCAACTGAAAAGTTGTTATCAGAAATGGATGGGTTTAGTTTCTGCACGTAGAAGCAAAAGGC | 0.0143 |
| GAGACCGCAACTGAAAAGTTGTTATCAGAAATGGATGGGTTTACTTTCTGCACGTAGAAGCAAAAGGC | 0.00596 |
| GAGACCGCAACTGAAAAGTTGTTATCAGAAATGGATGGGTTCTGTTTCTGCACGTAGAAGCAAAAGGC | 0.0022 |
| GAGACCGCAACTGAAAAGTTGTTATCAGAAATGGATGGGTTCTTTTTCTGCACGTAGAAGCAAAAGGC | 0.00299 |
| GAGACCGCAACTGAAAAGTTGTTATCAGAAATGGATGGGTTCTCTTTCTGCACGTAGAAGCAAAAGGC | 0.000795 |
| GAGACCGCAACTGAAAAGTTGTTATCAGAAATGGATGGGTTACTTTTCTGCACGTAGAAGCAAAAGGC | 0.00211 |
| GAGACCGCAACTGAAAAGTTGTTATCAGAAATGGATGGGTTACCTTTCTGCACGTAGAAGCAAAAGGC | 0.00102 |
| GAGACCGCAACTGAAAAGTTGTTATCAGAAATGGATGGGTTACGTTTCTGCACGTAGAAGCAAAAGGC | 0.00203 |
| GAGACCGCAACTGAAAAGTTGTTATCAGAAATGGATTGGTTGCATTTCTGCACGTAGAAGCAAAAGGC | 0.00313 |
| GAGACCGCAACTGAAAAGTTGTTATCAGAAATGGATTGGTTGGATTTCTGCACGTAGAAGCAAAAGGC | 0.00602 |
| GAGACCGCAACTGAAAAGTTGTTATCAGAAATGGATTGGTTGTATTTCTGCACGTAGAAGCAAAAGGC | 0.00731 |
| GAGACCGCAACTGAAAAGTTGTTATCAGAAATGGATGGGTTTGGTTTCTGCACGTAGAAGCAAAAGGC | 0.00264 |
| GAGACCGCAACTGAAAAGTTGTTATCAGAAATGGATGGGTTTGTTTTCTGCACGTAGAAGCAAAAGGC | 0.00254 |
| GAGACCGCAACTGAAAAGTTGTTATCAGAAATGGATGGGTTTGCTTTCTGCACGTAGAAGCAAAAGGC | 0.00145 |
| GAGACCGCAACTGAAAAGTTGTTATCAGAAATGGATGGGTTTTTTTTCTGCACGTAGAAGCAAAAGGC | 0.00186 |
| GAGACCGCAACTGAAAAGTTGTTATCAGAAATGGATGGGTTTTCTTTCTGCACGTAGAAGCAAAAGGC | 0.00206 |
| GAGACCGCAACTGAAAAGTTGTTATCAGAAATGGATGGGTTTTGTTTCTGCACGTAGAAGCAAAAGGC | 0.000847 |
| GAGACCGCAACTGAAAAGTTGTTATCAGAAATGGATCGGTTGAGTTTCTGCACGTAGAAGCAAAAGGC | 0.00293 |
| GAGACCGCAACTGAAAAGTTGTTATCAGAAATGGATCGGTTGACTTTCTGCACGTAGAAGCAAAAGGC | 0.00161 |
| GAGACCGCAACTGAAAAGTTGTTATCAGAAATGGATCGGTTGATTTTCTGCACGTAGAAGCAAAAGGC | 0.00681 |

| Variant | fraction ligated |
| --- | --- |
| GAGACCGCAACTGAAAAGTTGTTATCAGAAATGGATGGGTTTAATTTCTGCACGTAGAAGCAAAAGGC | 0.117 |
| GAGACCGCAACTGAAAAGTTGTTATCAGAAATGGATGGGTTAAATTTCTGCACGTAGAAGCAAAAGGC | 0.364 |
| GAGACCGCAACTGAAAAGTTGTTATCAGAAATGGATGGGTTCAATTTCTGCACGTAGAAGCAAAAGGC | 0.0127 |
| GAGACCGCAACTGAAAAGTTGTTATCAGAAATGGATTGGTTGAATTTCTGCACGTAGAAGCAAAAGGC | 0.0174 |
| GAGACCGCAACTGAAAAGTTGTTATCAGAAATGGATCGGTTGAATTTCTGCACGTAGAAGCAAAAGGC | 0.00417 |
| GAGACCGCAACTGAAAAGTTGTTATCAGAAATGGATGGGTTTTATTTCTGCACGTAGAAGCAAAAGGC | 0.00326 |
| GAGACCGCAACTGAAAAGTTGTTATCAGAAATGGATGGGTTTGATTTCTGCACGTAGAAGCAAAAGGC | 0.115 |
| GAGACCGCAACTGAAAAGTTGTTATCAGAAATGGATGGGTTTCATTTCTGCACGTAGAAGCAAAAGGC | 0.000975 |
| GAGACCGCAACTGAAAAGTTGTTATCAGAAATGGATGGGTTCAGTTTCTGCACGTAGAAGCAAAAGGC | 0.00439 |
| GAGACCGCAACTGAAAAGTTGTTATCAGAAATGGATGGGTTCATTTTCTGCACGTAGAAGCAAAAGGC | 0.00542 |
| GAGACCGCAACTGAAAAGTTGTTATCAGAAATGGATGGGTTCACTTTCTGCACGTAGAAGCAAAAGGC | 0.00284 |
| GAGACCGCAACTGAAAAGTTGTTATCAGAAATGGATGGGTTAGATTTCTGCACGTAGAAGCAAAAGGC | 0.0596 |
| GAGACCGCAACTGAAAAGTTGTTATCAGAAATGGATGGGTTATATTTCTGCACGTAGAAGCAAAAGGC | 0.00678 |
| GAGACCGCAACTGAAAAGTTGTTATCAGAAATGGATGGGTTACATTTCTGCACGTAGAAGCAAAAGGC | 0.0101 |
| GAGACCGCAACTGAAAAGTTGTTATCAGAAATGGATGGGTTATCTTTCTGCACGTAGAAGCAAAAGGC | 0.00312 |
| GAGACCGCAACTGAAAAGTTGTTATCAGAAATGGATGGGTTATTTTTCTGCACGTAGAAGCAAAAGGC | 0.00133 |
| GAGACCGCAACTGAAAAGTTGTTATCAGAAATGGATGGGTTATGTTTCTGCACGTAGAAGCAAAAGGC | 0.000353 |
| GAGACCGCAACTGAAAAGTTGTTATCAGAAATGGATGGGTTAAGTTTCTGCACGTAGAAGCAAAAGGC | 0.0717 |
| GAGACCGCAACTGAAAAGTTGTTATCAGAAATGGATGGGTTAATTTTCTGCACGTAGAAGCAAAAGGC | 0.0746 |
| GAGACCGCAACTGAAAAGTTGTTATCAGAAATGGATGGGTTAACTTTCTGCACGTAGAAGCAAAAGGC | 0.024 |
| GAGACCGCAACTGAAAAGTTGTTATCAGAAATGGATGGGTTAGGTTTCTGCACGTAGAAGCAAAAGGC | 0.00352 |
| GAGACCGCAACTGAAAAGTTGTTATCAGAAATGGATGGGTTAGTTTTCTGCACGTAGAAGCAAAAGGC | 0.00363 |
| GAGACCGCAACTGAAAAGTTGTTATCAGAAATGGATGGGTTAGCTTTCTGCACGTAGAAGCAAAAGGC | 0.00251 |
| GAGACCGCAACTGAAAAGTTGTTATCAGAAATGGATTGGTTTAATTTCTGCACGTAGAAGCAAAAGGC | 0.00146 |
| GAGACCGCAACTGAAAAGTTGTTATCAGAAATGGATTGGTTCAATTTCTGCACGTAGAAGCAAAAGGC | 0.00492 |
| GAGACCGCAACTGAAAAGTTGTTATCAGAAATGGATTGGTTAAATTTCTGCACGTAGAAGCAAAAGGC | 0.00778 |
| GAGACCGCAACTGAAAAGTTGTTATCAGAAATGGATGGGTGGAATTTCTGCACGTAGAAGCAAAAGGC | 0.146 |

| Variant | fraction ligated |
| --- | --- |
| GAGACCGCAACTGAAAAGTTGTTATCAGAAATGGATGGGTCGAATTTCTGCACGTAGAAGCAAAAGGC | 0.86 |
| GAGACCGCAACTGAAAAGTTGTTATCAGAAATGGATGGGTAGAATTTCTGCACGTAGAAGCAAAAGGC | 0.689 |
| GAGACCGCAACTGAAAAGTTGTTATCAGAAATGGATGGGTTCTATTTCTGCACGTAGAAGCAAAAGGC | 0.00312 |
| GAGACCGCAACTGAAAAGTTGTTATCAGAAATGGATGGGTTCGATTTCTGCACGTAGAAGCAAAAGGC | 0.0762 |
| GAGACCGCAACTGAAAAGTTGTTATCAGAAATGGATGGGTTCCATTTCTGCACGTAGAAGCAAAAGGC | 0.00394 |
| GAGACCGCAACTGAAAAGTTGTTATCAGAAATGGATCGGTTGGATTTCTGCACGTAGAAGCAAAAGGC | 0.00302 |
| GAGACCGCAACTGAAAAGTTGTTATCAGAAATGGATCGGTTGCATTTCTGCACGTAGAAGCAAAAGGC | 0.00193 |
| GAGACCGCAACTGAAAAGTTGTTATCAGAAATGGATCGGTTGTATTTCTGCACGTAGAAGCAAAAGGC | 0.00493 |
| GAGACCGCAACTGAAAAGTTGTTATCAGAAATGGATGGGTTGCCTTTCTGCACGTAGAAGCAAAAGGC | 0.00194 |
| GAGACCGCAACTGAAAAGTTGTTATCAGAAATGGATAGGTTGACTTTCTGCACGTAGAAGCAAAAGGC | 0.00309 |
| GAGACCGCAACTGAAAAGTTGTTATCAGAAATGGATAGGTTGAGTTTCTGCACGTAGAAGCAAAAGGC | 0.00429 |
| GAGACCGCAACTGAAAAGTTGTTATCAGAAATGGATAGGTTGATTTTCTGCACGTAGAAGCAAAAGGC | 0.00574 |
| GAGACCGCAACTGAAAAGTTGTTATCAGAAATGGATGGGTTCCGTTTCTGCACGTAGAAGCAAAAGGC | 0.00342 |
| GAGACCGCAACTGAAAAGTTGTTATCAGAAATGGATGGGTTCCTTTTCTGCACGTAGAAGCAAAAGGC | 0.00191 |
| GAGACCGCAACTGAAAAGTTGTTATCAGAAATGGATGGGTTCCCTTTCTGCACGTAGAAGCAAAAGGC | 0.00224 |
| GAGACCGCAACTGAAAAGTTGTTATCAGAAATGGATAGGTTAAATTTCTGCACGTAGAAGCAAAAGGC | 0.00332 |
| GAGACCGCAACTGAAAAGTTGTTATCAGAAATGGATAGGTTCAATTTCTGCACGTAGAAGCAAAAGGC | 0.00225 |
| GAGACCGCAACTGAAAAGTTGTTATCAGAAATGGATAGGTTTAATTTCTGCACGTAGAAGCAAAAGGC | 0.00089 |
| GAGACCGCAACTGAAAAGTTGTTATCAGAAATGGATTGGTTGACTTTCTGCACGTAGAAGCAAAAGGC | 0.00343 |
| GAGACCGCAACTGAAAAGTTGTTATCAGAAATGGATTGGTTGAGTTTCTGCACGTAGAAGCAAAAGGC | 0.0087 |
| GAGACCGCAACTGAAAAGTTGTTATCAGAAATGGATTGGTTGATTTTCTGCACGTAGAAGCAAAAGGC | 0.0093 |
| GAGACCGCAACTGAAAAGTTGTTATCAGAAATGGATGGGTTGCATTTCTGCACGTAGAAGCAAAAGGC | 0.115 |
| GAGACCGCAACTGAAAAGTTGTTATCAGAAATGGATGGGTTTCCTTTCTGCACGTAGAAGCAAAAGGC | 0.00131 |
| GAGACCGCAACTGAAAAGTTGTTATCAGAAATGGATGGGTTTCTTTTCTGCACGTAGAAGCAAAAGGC | 0.0038 |
| GAGACCGCAACTGAAAAGTTGTTATCAGAAATGGATGGGTTTCGTTTCTGCACGTAGAAGCAAAAGGC | 0.00164 |

Source: the supplement of paper PMC6755084
